Measured values taken from the supplement of paper PMC9170038.

tested on: MS2 coat protein; assay: apparent KD of MS2 coat protein, switch OFF state (with FMN for OFF switches, without FMN for ON switches); designed switch direction (-1 OFF switch, 1 ON switch): 1; higher = weaker reporter binding; conditions: FMN input: 0 or 200 uM; Eterna round: R93 (includes R88 designs)
In short: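 Titration buffer: 100 mM Tris-HCl pH 7.5, 80 mM KCl, 4 mM MgCl2, without or with constant ligand. Designed RNA switches transcribed on-chip from Illumina sequencing clusters received SNAP-549-labelled MS2 coat protein in twofold steps from 0.7 or 1.5 nM to 3 µM. Apparent KD is the median per design of fits to normalised cluster binding curves.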

How did the “apparent KD of MS2 coat protein” value turn out when “GCAAAACAUGAGGAUCACCCAUGUGAAAAGAAUGUAGGAUAUGGGCUCAUAAAUAGCAGCCCAGAAGGGCGAAGAA [Onmace]” was run?
The value was 26.2 nM.

“GUAUAUAUGAGGUAGGAUAUCCAAAAUAAAACAUGAGGAUCACCCAUGUAAAUAAAUAAUAAAUGGGAGAAGGACCACAUAUAUAC [Ex6 sub 3]” was tested. Which “apparent KD of MS2 coat protein” value did it give?
The value was 34.2 nM.

For “AACAUACAUGAGGAUCACCCAUGUUUAUAAAAACAAGGAUAUAUAAGAACAAACAAACAAAUAGAAGGUGUAAAAA [Default title]”, which “apparent KD of MS2 coat protein” value is on record?
Its value is 17.2 nM.

With “AGCACGCGAUUGGAGGAUAUGUUGUUUGCAACAUGAGGAUCACCCAUGUCUGAGGCUGAAAAGCAGCAGAAGGCCGAUACAACCA [SS2-1.1]” as the sequence, how does the “apparent KD of MS2 coat protein” value read?
The value was 113 nM.

Which “apparent KD of MS2 coat protein” value does the source give for “UACAGACAUGAGGAUCACCCAUGUAGAAUUAUGGGAGGAUAUACAAAGACGAGAGUCAGAGUAGAAGGCCUAGGAC [salish99-ss1-166]” here?
The value was 62.7 nM.

Which “apparent KD of MS2 coat protein” value does the source give for “GGAGCCGGUACUGAGGAUAUUCAUAUUAAAACAUGAGGAUCACCCAUGUAGGCCAGAAGGCCUUGGGAGAAGGCAGACCAGCUCG [Atgexeedri]” here?
The value was 273 nM.

Which “apparent KD of MS2 coat protein” value does the source give for “GGAAGACAUGAGGAUCACCCAUGUGGGAAUAUGGGAGGAUAUACAAAGACGAGAGUCAGAGUAGAAGGCCUAGGAC [salish99-ss1-102]” here?
The value was 105 nM.

“AGAAAUAAAUGAGAGGAUAUCCAAAAGAAAACAUGAGGAUCACCCAUGUAAAAGAAAAUAAAAUGGGAGAAGGCUCGAAAUAAAG [80%, More Helter Skelter 2]” was tested. Which “apparent KD of MS2 coat protein” value did it give?
The value was 68.5 nM.

How did the “apparent KD of MS2 coat protein” value turn out when “AGGAGACAUGAGGAUCACCCAUGUGCACGUGGAGGAGGAUAUGCUAGUAGAAGAUAGAAAGCAGAAGGCCUAAGAA [mod of top voted: #2]” was run?
Its value is 37.2 nM.

Which “apparent KD of MS2 coat protein” value does the source give for “AAUAAACAUGAGGAUCACCCAUGUAGAAACAUGGGAGGAUAUACAAAGACGAAAGUCAAAGUAGAAGGCCUAAUAA [Mat - Same State 1 - Mod - D167]” here?
Its value is 42.4 nM.

Which “apparent KD of MS2 coat protein” value does the source give for “AAAAAACAUGAGGAUCACCCAUGUGAGAACAAGGGAGGAUAUACGAAGACGAAAGUCGAAGUAGAAGGCCUAAAAA [Garnet 81]” here?
The value was 46.6 nM.

With “ACAAACAAAAAAGAGGAUAUCCAAAACAAAACAUGAGGAUCACCCAUGUAAAAGAAAAGAAAAUGGGAGAAGGCUUACAACAAAC [SS2 M 22]” as the sequence, how does the “apparent KD of MS2 coat protein” value read?
The value was 28.2 nM.

Which “apparent KD of MS2 coat protein” value does the source give for “AAGUCACAUGAGGAUCACCCAUGUCGUAAACGAUGAGGAUAUAGGAACGAAAGAAAAAAACUAGAAGGUAUAACAA [SameState1-03]” here?
Its value is 26.7 nM.

“AAAUAAAUGACUGAGGAUAUGUCGAAGAAAACAUGAGGAUCACCCAUGUGAUAAUAAAAAGGGUGAUAGAAGGUAGUCAACAAAC [Mod 10 of Pariah 4 by Hyphema in Round 1]” was tested. Which “apparent KD of MS2 coat protein” value did it give?
Its value is 262 nM.

With “AAACCACAUGAGGAUCACCCAUGUAGAAAUAUGGGAGGAUAUACAAACACGAAAGUGAAAGUAGAAGGCCUAAAAG [77%, Mat - Mod of Eli, 7]” as the sequence, how does the “apparent KD of MS2 coat protein” value read?
Its value is 118 nM.

How did the “apparent KD of MS2 coat protein” value turn out when “CGCUCACAUGAGGAUCACCCAUGUCCUAGGAGGUCAGGAUAUAGCUCGGAUGCGUUGAGGCUAGAAGGGACAGGUG [JR_SS001_Sub606]” was run?
Its value is 59.5 nM.

For “UUAAAACAUGAGGAUCACCCAUGUAGAAAUAUGGGAGGAUAUACGAAGACGAAAGUCAAAGUAGAAGGCCUAAAUU [Mat - Same State 1 - Eli mod - D112]”, which “apparent KD of MS2 coat protein” value is on record?
Its value is 64.9 nM.

How did the “apparent KD of MS2 coat protein” value turn out when “AGGAAACAUGAGGAUCACCCAUGUAAAGAUGGGCGAGGAUAUCGAAAGAAAAGAAAGAAACGAGAAGGCGCAAAAG [Flamingo]” was run?
Its value is 240 nM.

“UAAAAACAUGAGGAUCACCCAUGUGAGAACAUGGGAGGAUAUACAAGGACGAAAGUCAAGGUAGAAGGCCUAAAAU [Mat - Same State 1 - Mod - D175]” was tested. Which “apparent KD of MS2 coat protein” value did it give?
The value was 29.3 nM.

Which “apparent KD of MS2 coat protein” value does the source give for “UGGAGACAUGAGGAUCACCCAUGUGAGAAGAGGCGAGGAUAUCGAAAGAAAGAAGAGAAACGAGAAGGCGCGAGUC [salish99-SS1-046]” here?
Its value is 41 nM.

How did the “apparent KD of MS2 coat protein” value turn out when “AAAUAAAUGACUAAGGAUAUAUCGAAGAAGACAUGAGGAUCACCCAUGUAAUAAUAAAAAGGGUGGUAGAAGGUAGUCAACAAAC [Mod 6 of Pariah 4 by Hyphema in Round 1]” was run?
Its value is 233 nM.

With “AGGAAACAUGAGGAUCACCCAUGUAAAAAAUAGGGAGGAUAUACUAGAAGAAACAAAAUAGUAGAAGGCUCAAAAA [75%, Ex sub1, 25]” as the sequence, how does the “apparent KD of MS2 coat protein” value read?
The value was 30 nM.

For “AGGAGACAUGAGGAUCACCCAUGUGAGAAGAGGCGAGGAUAUCGAAAGAAAGAAGAGAAACGAGAAGGCGCGAGCU [salish99-SS1-024]”, which “apparent KD of MS2 coat protein” value is on record?
Its value is 29.6 nM.

Which “apparent KD of MS2 coat protein” value does the source give for “AGAAAACAUGAGGAUCACCCAUGUAGAAAUAUGGGAGGAUAUACAUAGACGAAAGUCAUAGUAGAAGGCCUAAAGA [Mat - Same State 1 - Meechl mod - D128]” here?
The value was 49.4 nM.

With “AAAAUAAAAUAAAAGGAUAUAAAGAUAUAUACAUGAGGAUCACCCAUGUAUAUAUCAAUAAAAUAAAAGAAGGAAUAAAAAUAAA [SS2 510: MS2 10]” as the sequence, how does the “apparent KD of MS2 coat protein” value read?
Its value is 18 nM.

For “AAGAGACAUGAGGAUCACCCAUGUAGGAUUAUGGGAGGAUAUACAAAGACGAGAGUCAGAGUAGAAGGCCUAGGAU [salish99-ss1-130(!)]”, which “apparent KD of MS2 coat protein” value is on record?
The value was 59.9 nM.

For “AACAAACAUGAGGAUCACCCAUGUCAAACAUACCAAGGAUAUGGGAGACGAGACUCGUCACCAGAAGGUGGAAAUU [Maatce]”, which “apparent KD of MS2 coat protein” value is on record?
The value was 123 nM.

How did the “apparent KD of MS2 coat protein” value turn out when “AAGAGAAGAACUGAGGAUAUCAGGGAUGGUACAUGAGGAUCACCCAUGUUGGCAAGCGAAGAAACUGAGAAGGCAGAGAAGAAGAA [JR_SameState2_Sub6]” was run?
The value was 34.3 nM.

For “GGGCAAGAGAGAGAGGAUAUCCAAAGGAAAACAUGAGGAUCACCCAUGUAGAAGGUAGGAAAUUGGGAGAAGGCUCAAGAGAGAG [salish99-ss2-137]”, which “apparent KD of MS2 coat protein” value is on record?
The value was 12.6 nM.

How did the “apparent KD of MS2 coat protein” value turn out when “AAAAUAUAAAGGAAGGAUAUCCAAAGGACUACAUGAGGAUCACCCAUGUAAAGAAAGAAUAAAUGGGAGAAGGUCCAAAUAAUAA [Designing denovo 32]” was run?
Its value is 180 nM.

Which “apparent KD of MS2 coat protein” value does the source give for “AAUAUAUUAAGUGAGGAUAUCAAAGAAAAAACAUGAGGAUCACCCAUGUGGGAAACCUGGUCGGGUGAGAAGGCACUUAAUAUAU [Samwise Clockwise 28 - Jieux - Same State 2]” here?
Its value is 314 nM.

For “GACUAACAUGAGGAUCACCCAUGUAUUCAAACAUGAGGAUAUAUAACACAUCAUCGACGGAUAGAAGGCAUAGAUA [JR_SS001_Sub1207]”, which “apparent KD of MS2 coat protein” value is on record?
The value was 71.7 nM.

Which “apparent KD of MS2 coat protein” value does the source give for “GGAAGACAUGAGGAUCACCCAUGUGGGAUUAUGGGAGGAUAUACAAAGACGAGAGUCAGAGUAGAAGGCCUAGGAC [salish99-ss1-123(!)]” here?
The value was 61.4 nM.

“AAAAAACAUGAGGAUCACCCAUGUAUAAAAUGGGAAGGAUAUACUAAGACGAAAGUCAUAGUAGAAGGUCCAAAAA [76%, Meechl, 12]” was tested. Which “apparent KD of MS2 coat protein” value did it give?
The value was 193 nM.

With “AAAUGACAUGAGGAUCACCCAUGUCCACCAAACGGAGGAUAUUGGGCGGCAAAACGUUGUUAAGAAGGCCGAAAAA [SS1-1.1]” as the sequence, how does the “apparent KD of MS2 coat protein” value read?
The value was 28 nM.

With “AAAAAAAAAGUAUAGGAUAUCCGAGUGGUAACAUGAGGAUCACCCAUGUGAAGAAAGGAAGAUGAGGAGAAGGAUACAAAAAAAAA [Mod of Mat of Nando]” as the sequence, how does the “apparent KD of MS2 coat protein” value read?
The value was 65.3 nM.

With “AAGAAACAUGAGGAUCACCCAUGUGAUAAUAUGGGAGGAUAUACGAAGACGAAAGACGAAGUAGAAGGCCUAAGAA [Garnet 46]” as the sequence, how does the “apparent KD of MS2 coat protein” value read?
Its value is 138 nM.

“AGAAAUAAAAGAGAGGAUAUCCAAAAGAAAACAUGAGGAUCACCCAUGUAAAAGAAAAUAAAAUGGGAGAAGGCUCAUAUUAAAG [JL Skelter 2 mod 3]” was tested. Which “apparent KD of MS2 coat protein” value did it give?
Its value is 146 nM.

Which “apparent KD of MS2 coat protein” value does the source give for “UGGAGACAUGAGGAUCACCCAUGUGAGAAGAGGCGAGGAUAUCGAAAGAAAGAAGAGAAACGAGAAGGCGCGAGAG [salish99-SS1-041]” here?
Its value is 51.2 nM.

For “AUAGACAUAGUUCAGGAUAUGGUAAUAGUCACAUGAGGAUCACCCAUGUGCAUUUAUAUGCGCGAUCAGAAGGGAGGUAGAUAUA [Mat - Same state - Malcolm Mod - D117]”, which “apparent KD of MS2 coat protein” value is on record?
The value was 16.3 nM.

With “AGGAAACAUGAGGAUCACCCAUGUAUAAAAAAUACAGGAUAUGGAAACACGAAAGUGAAACCAGAAGGGUAAAAAA [77%, Mat - Mod of Eli, 32]” as the sequence, how does the “apparent KD of MS2 coat protein” value read?
Its value is 39.9 nM.

Which “apparent KD of MS2 coat protein” value does the source give for “AAAUAAAUAAGAGAGGAUAUGUCAGAGAAAACAUGAGGAUCACCCAUGUAAUAAUAAAAAGGGUGACAGAAGGCUCAAAACAAAC [Hyphema modified]” here?
The value was 58.5 nM.

How did the “apparent KD of MS2 coat protein” value turn out when “AAAAGACAUGAGGAUCACCCAUGUAAAAACGUAGGAGGAUAUGUCGUGAAAAAAGACUUGACAGAAGGCCUGUGUC [SS1 - 35]” was run?
Its value is 39 nM.
